Source: patent publication US20090220535A1 (REGENTS OF THE UNIVERSITY OF COLORADO, published 2009)
Positions count from the first letter of the chain named. Names and notes keep the numbering of the source.

T1: HPV11 L1 protein (human papillomavirus type 11, UniProt P04012 1-501)
T1 construct: Full-length HPV11 L1 DNA amplified from pVL11L1
T1 sequence: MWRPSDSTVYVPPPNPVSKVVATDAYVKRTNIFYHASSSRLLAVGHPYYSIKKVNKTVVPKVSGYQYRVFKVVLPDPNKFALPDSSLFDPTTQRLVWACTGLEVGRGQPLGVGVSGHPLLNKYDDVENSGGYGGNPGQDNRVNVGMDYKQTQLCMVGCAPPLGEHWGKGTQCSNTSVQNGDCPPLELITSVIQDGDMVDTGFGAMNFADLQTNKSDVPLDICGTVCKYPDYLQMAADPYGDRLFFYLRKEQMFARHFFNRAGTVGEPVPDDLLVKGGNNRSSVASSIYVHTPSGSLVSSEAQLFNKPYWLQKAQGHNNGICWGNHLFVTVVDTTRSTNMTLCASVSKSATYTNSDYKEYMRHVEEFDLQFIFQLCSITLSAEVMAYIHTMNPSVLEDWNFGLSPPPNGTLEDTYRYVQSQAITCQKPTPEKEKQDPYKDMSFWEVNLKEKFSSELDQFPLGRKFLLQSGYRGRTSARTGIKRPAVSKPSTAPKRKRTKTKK

B1: HPV11 GST-L2 (313-455) (other)
chain: GARIHYFQDISPVTQAAEEIELHPLVAAENDTFDIYAEPFDPIPDPVQHSVTQSYLTSTPNTLSQSWGNTTVPLSIPSDWFVQSGPDITFPTASMGTPFSPVTPALPTGPVFITGSDFYLHPTWYFARRRRKRIPLFFTDVAA
notes: Carboxy-terminal third of HPV11 L2; also called pXA/BN-HPV11L2/313-455; HPV GST=L2(313455); not shown: glutathione-S-transferase (GST) fusion partner from vector pXA/BN (multiple cloning site of pGEX-4T-2); thrombin-cleavab
B2: HPV11 GST-L2 (313-455) mutant P419A (other)
chain: B1 chain with P107A
notes: also called pXA/BN-HPV11L2/313-455/P419A; not shown: N-terminal GST fusion partner and its thrombin linker (vector pXA/BN with the pGEX-4T-2 cloning site)
B3: HPV11 GST-L2 (313-455) double mutant AL417-418EE (other)
chain: B1 chain with A105E, L106E
notes: The text says 'changed to glutamines' but prints EE and speaks of negatively charged residues; also called pXA/BN-HPV11L2/313-455/AL417418EE; not shown: N-terminal GST fusion partner and its thrombin linker (vector pXA/BN with the pGEX-4T-2 cloning site)
B4: HPV11 GST-L2 (313-455) mutant P413A (other)
chain: B1 chain with P101A
notes: also called pXA/BN-HPV11L2/313-455/P413A; not shown: N-terminal GST fusion partner and its thrombin linker (vector pXA/BN with the pGEX-4T-2 cloning site)
B5: HPV11 GST-L2 (313-455) mutant A417E (other)
chain: B1 chain with A105E
notes: also called pXA/BN-HPV11L2/313-455/A417E; not shown: N-terminal GST fusion partner and its thrombin linker (vector pXA/BN with the pGEX-4T-2 cloning site)
B6: HPV11 GST-L2 (313-455) mutant P416A (other)
chain: B1 chain with P104A
notes: also called pXA/BN-HPV11L2/313-455/P416A; not shown: N-terminal GST fusion partner and its thrombin linker (vector pXA/BN with the pGEX-4T-2 cloning site)
B7: HPV11 GST-L2 (313-455) mutant L418E (other)
chain: B1 chain with L106E
notes: not shown: N-terminal GST fusion partner and its thrombin linker (vector pXA/BN with the pGEX-4T-2 cloning site)
B8: HPV11 GST-L2 fusion protein, L2 amino acids 346-455 (other)
chain: DIYAEPFDPIPDPVQHSVTQSYLTSTPNTLSQSWGNTTVPLSIPSDWFVQSGPDITFPTASMGTPFSPVTPALPTGPVFITGSDFYLHPTWYFARRRRKRIPLFFTDVAA
notes: also called pXA/BN-HPV11L2/346-455; not shown: glutathione-S-transferase (GST) fusion partner from vector pXA/BN (multiple cloning site of pGEX-4T-2); thrombin-cleavab
B9: HPV11 GST-L2 fusion protein, L2 amino acids 157-455 (other)
chain: PLFTEPSVIQPQPPVEASGHILISAPTITSQHVEDIPLDTFVVSSSDSGPTSSTPLPRAFPRPRVGLYSRALQQVQVTDPAFLSTPQRLVTYDNPVYEGEDVSLQFTHESIHNAPDEAFMDIIRLHRPAITSRRGLVRFSRIGQRGSMYTRSGQHIGARIHYFQDISPVTQAAEEIELHPLVAAENDTFDIYAEPFDPIPDPVQHSVTQSYLTSTPNTLSQSWGNTTVPLSIPSDWFVQSGPDITFPTASMGTPFSPVTPALPTGPVFITGSDFYLHPTWYFARRRRKRIPLFFTDVAA
notes: also called pXA/BN-HPV11L2/157-455; not shown: glutathione-S-transferase (GST) fusion partner from vector pXA/BN (multiple cloning site of pGEX-4T-2); thrombin-cleavab
B10: HPV11 GST-L2 fusion protein, L2 amino acids 346-439 (other)
chain: DIYAEPFDPIPDPVQHSVTQSYLTSTPNTLSQSWGNTTVPLSIPSDWFVQSGPDITFPTASMGTPFSPVTPALPTGPVFITGSDFYLHPTWYFA
notes: also called pXA/BN-HPV11L2/346-439; not shown: glutathione-S-transferase (GST) fusion partner from vector pXA/BN (multiple cloning site of pGEX-4T-2); thrombin-cleavab
B11: HPV11 GST-L2 fusion protein, L2 amino acids 396-455 (other)
chain: SGPDITFPTASMGTPFSPVTPALPTGPVFITGSDFYLHPTWYFARRRRKRIPLFFTDVAA
notes: also called pXA/BN-HPV11L2/396-455; not shown: glutathione-S-transferase (GST) fusion partner from vector pXA/BN (multiple cloning site of pGEX-4T-2); thrombin-cleavab
B12: HPV11 GST-L2 fusion protein, L2 amino acids 396-439 (other)
chain: SGPDITFPTASMGTPFSPVTPALPTGPVFITGSDFYLHPTWYFA
notes: also called pXA/BN-HPV11L2/396-439; not shown: glutathione-S-transferase (GST) fusion partner from vector pXA/BN (multiple cloning site of pGEX-4T-2); thrombin-cleavab
B13: HPV11 GST-L2 fusion protein, L2 amino acids 1-309 (other)
chain: MKPRARRRKRASATQLYQTCKATGTCPPDVIPKVEHTTIADQILKWGSLGVFFGGLGIGTGAGSGGRAGYIPLGSSPKPAITGGPAARPPVLVEPVAPSDPSIVSLIEESAIINAGAPEVVPPTQGGFTITSSESTTPAILDVSVTNHTTTSVFQNPLFTEPSVIQPQPPVEASGHILISAPTITSQHVEDIPLDTFVVSSSDSGPTSSTPLPRAFPRPRVGLYSRALQQVQVTDPAFLSTPQRLVTYDNPVYEGEDVSLQFTHESIHNAPDEAFMDIIRLHRPAITSRRGLVRFSRIGQRGSMYTRSG
notes: also called pXA/BN-HPV11L2/1-309; not shown: glutathione-S-transferase (GST) fusion partner from vector pXA/BN (multiple cloning site of pGEX-4T-2); thrombin-cleavab
B14: HPV11 GST-L2 fusion protein, L2 amino acids 1-156 (other)
chain: MKPRARRRKRASATQLYQTCKATGTCPPDVIPKVEHTTIADQILKWGSLGVFFGGLGIGTGAGSGGRAGYIPLGSSPKPAITGGPAARPPVLVEPVAPSDPSIVSLIEESAIINAGAPEVVPPTQGGFTITSSESTTPAILDVSVTNHTTTSVFQN
notes: also called pXA/BN-HPV11L2/1-156; not shown: glutathione-S-transferase (GST) fusion partner from vector pXA/BN (multiple cloning site of pGEX-4T-2); thrombin-cleavab
B15: HPV11 GST-L2 fusion protein, L2 amino acids 157-309 (other)
chain: PLFTEPSVIQPQPPVEASGHILISAPTITSQHVEDIPLDTFVVSSSDSGPTSSTPLPRAFPRPRVGLYSRALQQVQVTDPAFLSTPQRLVTYDNPVYEGEDVSLQFTHESIHNAPDEAFMDIIRLHRPAITSRRGLVRFSRIGQRGSMYTRSG
notes: also called pXA/BN-HPV11L2/157-309; not shown: glutathione-S-transferase (GST) fusion partner from vector pXA/BN (multiple cloning site of pGEX-4T-2); thrombin-cleavab
B16: HPV11 GST-L2 fusion protein, L2 amino acids 313-400 (other)
chain: GARIHYFQDISPVTQAAEEIELHPLVAAENDTFDIYAEPFDPIPDPVQHSVTQSYLTSTPNTLSQSWGNTTVPLSIPSDWFVQSGPDI
notes: also called pXA/BN-HPV11L2/313-400; not shown: glutathione-S-transferase (GST) fusion partner from vector pXA/BN (multiple cloning site of pGEX-4T-2); thrombin-cleavab
B17: HPV11 GST-L2 fusion protein, L2 amino acids 1-455 (full length) (other)
chain: MKPRARRRKRASATQLYQTCKATGTCPPDVIPKVEHTTIADQILKWGSLGVFFGGLGIGTGAGSGGRAGYIPLGSSPKPAITGGPAARPPVLVEPVAPSDPSIVSLIEESAIINAGAPEVVPPTQGGFTITSSESTTPAILDVSVTNHTTTSVFQNPLFTEPSVIQPQPPVEASGHILISAPTITSQHVEDIPLDTFVVSSSDSGPTSSTPLPRAFPRPRVGLYSRALQQVQVTDPAFLSTPQRLVTYDNPVYEGEDVSLQFTHESIHNAPDEAFMDIIRLHRPAITSRRGLVRFSRIGQRGSMYTRSGQHIGARIHYFQDISPVTQAAEEIELHPLVAAENDTFDIYAEPFDPIPDPVQHSVTQSYLTSTPNTLSQSWGNTTVPLSIPSDWFVQSGPDITFPTASMGTPFSPVTPALPTGPVFITGSDFYLHPTWYFARRRRKRIPLFFTDVAA
notes: also called pXA/BN-HPV11 L2; not shown: glutathione-S-transferase (GST) fusion partner from vector pXA/BN (multiple cloning site of pGEX-4T-2); thrombin-cleavab
B18: HPV16 GST-L2 fusion protein, L2 amino acids 321-473 (other)
chain: GAKVHYYYDLSTIDPAEEIELQTITPSTYTTTSHAASPTSINNGLYDIYADDFITDTSTTPVPSVPSTSLSGYIPANTTIPFGGAYNIPLVSGPDIPINITDQAPSLIPIVPGSPQYTIIADAGDFYLHPSYYMLRKRRKRLPYFFSDVSLAA
notes: also called HPV16 L2; not shown: glutathione-S-transferase (GST) fusion partner from vector pXA/BN (multiple cloning site of pGEX-4T-2); thrombin-cleavab
B19: HPV33 GST-L2 fusion protein, L2 amino acids 319-467 (other)
chain: GARIHYYQDLSPIVPLDHTVPNEQYELQPLHDTSTSSYSINDGLYDVYADDVDNVHTPMQHSYSTFATTRTSNVSIPLNTGFDTPVMSGPDIPSPLFPTSSPFVPISPFFPFDTIVVDGADFVLHPSYFILRRRRKRFPYFFTDVRVAA
notes: also called HPV33 L2; not shown: glutathione-S-transferase (GST) fusion partner from vector pXA/BN (multiple cloning site of pGEX-4T-2); thrombin-cleavab
B20: HPV6b GST-L2 fusion protein, L2 amino acids 316-459 (other)
chain: RIHYFYDISPIAQAAEEIEMHPLVAAQDDTFDIYAESFEPGINPTQHPVTNISDTYLTSTPNTVTQPWGNTTVPLSLPNDPFLQSGPDITFPTAPMGTPFSPVTPALPTGPVFITGSGFYLHPAWYFARKRRKRIPLFFSDVAA
notes: also called HPV6b L2; not shown: glutathione-S-transferase (GST) fusion partner from vector pXA/BN (multiple cloning site of pGEX-4T-2); thrombin-cleavab
B21: BPV1 GST-L2 fusion protein, L2 amino acids 316-469 (other)
chain: GPQLHVRYSLSTIHEDVEAIPYTVDENTQGLAFVPLHEEQAGFEEIELDDFSETHRLLPQNTSSTPVGSGVRRSLIPTQEFSATRPTGVVTYGSPDTYSASPVTDPDSTSPSLVIDDTTTTPIIIIDGHTVDLYSSNYTLHPSLLRKRKKRKHA
notes: range 316-469; Cloned as a BamHI/XhoI fragment; also called BPV1 L2; not shown: glutathione-S-transferase (GST) fusion partner from vector pXA/BN (multiple cloning site of pGEX-4T-2); thrombin-cleavab
B22: HPV1a GST-L2 fusion protein, L2 amino acids 347-507 (other)
chain: GARTHFFYDLSSIAPEDSIELLPLGEHSQTTVISSNLGDTAFIQGETAEDDLEVISLETPQLYSEEELLDTNESVGENLQLTITNSEGEVSILDLTQSRVRPPFGTEDTSLHVYYPNSSKGTPIINPEESFTPLVIIALNNSTGDFELHPSLRKRRKRAYV
notes: range 347-507; also called HPV1a L2; not shown: glutathione-S-transferase (GST) fusion partner from vector pXA/BN (multiple cloning site of pGEX-4T-2); thrombin-cleavab

target: T1, HPV11 L1 protein; assay: co-expression, glutathione sepharose eluate, densitometry

Row | Molecule | L1:L2 | binding result
1 | B1 | 2 L1:L2 ratio | –
2 | B2 | – | binds
3 | B3 | 0.33 L1:L2 ratio | –
4 | B4 | – | binds
5 | B5 | 1 L1:L2 ratio | –
6 | B6 | – | binds
7 | B7 | – | binds

target: T1, HPV11 L1 protein; assay: densitometry after size exclusion chromatography of the complex

Row | Molecule | L1:L2
8 | B1 | ~5 L1:L2 ratio

target: T1, HPV11 L1 protein; assay: densitometry of partially purified glutathione sepharose eluates

Row | Molecule | L1:L2
9 | B1 | ~2 L1:L2 ratio

target: T1, HPV11 L1 protein; assay: co-expression in E. coli, glutathione sepharose eluate, SDS-PAGE
Experimental: The lysates were then treated with 10 units/ml DNAse I in the presence of 5 mM MgCl2 for 30 minutes. […] Lysates were briefly sonicated, then centrifuged at 17,000 G for one hour and the supernatant was passed over a 10 mL bed volume glutathione sepharose column. […] The columns were washed with buffer L (40 mM Tris-Cl, pH 8.0, 0.2 M NaCl, 1 mM EDTA, 2 mM DTT) until no protein was detectable in the wash (approximately 20 bed volumes). To purify L1+GST-L2 complexes, bound proteins were eluted with 10 mM reduced glutathione in buffer L. The eluates were concentrated using Centriplus concentrators (Amicon). To further purify L1+L2 complexes from contaminating bacterial proteins, free L2 and L2 degradation products, eluted proteins were subjected to size exclusion fast pressure chromatography (FPLC) using a HiLoad Superdex 200 gel filtration column (Pharmacia). FPLC fractions containing complexes were pooled and further concentrated as outlined above. Protein complexes were analyzed by SDS-PAGE followed by Coomassie blue staining or immunoblotting. For densitometric analysis on Coomassie-stained gels, images were captured using a fluor-S MultiImager (Bio-Rad) with Quantity One software (BioRad) and quantitated using ImageQuant software (Molecular Dynamics). Using this strategy, L1 will be present upon elution from glutathione-sepharose only if it is bound to GST-L2.
The ability of each L2 protein to bind HPV11 L1 was determined by the presence or absence of L1 in the eluate from the glutathione sepharose column as measured by SDS-PAGE.

Row | Molecule | binding result
10 | B8 | binds
11 | B9 | binds
12 | B10 | binds
13 | B11 | binds
14 | B12 | binds
15 | B13 | no binding
16 | B14 | no binding
17 | B15 | no binding
18 | B16 | no binding
19 | B17 | binds

target: HPV11 L1 protein (human papillomavirus type 11) (UniProt P04012); assay: co-expression, glutathione sepharose eluate, densitometry of Coomassie-stained SDS-PAGE

Row | Molecule | L1:L2
20 | COPV1 GST-L2 fusion protein, L2 amino acids 360-513 (from UniProt P08515 1-218) | < 1 L1:L2 ratio
21 | HPV12 GST-L2 fusion protein, L2 amino acids 360-518 (from UniProt P08515 1-218) | < 1 L1:L2 ratio
22 | HPV5 GST-L2 fusion protein, L2 amino acids 376-518 (from UniProt P06918 376-518) | < 1 L1:L2 ratio

target: T1, HPV11 L1 protein; assay: as above

Row | Molecule | L1:L2
23 | B1 | > 1 L1:L2 ratio
24 | B18 | > 1 L1:L2 ratio
25 | B19 | > 1 L1:L2 ratio
26 | B20 | > 1 L1:L2 ratio

target: T1, HPV11 L1 protein; assay: co-expression in E. coli, glutathione sepharose eluate, immunoblot and Coomassie densitometry

Row | Molecule | binding result
27 | B21 | no binding
28 | B22 | no binding
